# Results reported in PMC12463560.
# Target: PEDV-S1 protein fused with an Fc region (PEDV-S1-Fc protein) (porcine epidemic diarrhea virus | human)
# Test: SDS-PAGE under reducing and non-reducing conditions; purified proteins loaded with (+) or without (-) beta-mercaptoethanol, Coomassie stained; shows disulfide-linked dimers only
substance,measurement,value
PEDV-S1 protein fused with an Fc region (PEDV-S1-Fc protein) (Fc fusion),stoichiometry N,2
